Results as given in patent publication US20210269517A1, “METHOD OF TREATING WASTING DISORDERS” (CSL Limited, priority 2018, published 2021).
One block for each molecule: values may come before it.

Experiments:
[1] = tested on: visceral epididymal adipose tissue; assay: Forskolin-stimulated lipolysis in adipose tissue explants in the presence of Atglistatin; type: cell-based, mice; conditions: 5 μM Atglistatin, 10 μM forskolin
Method: Male C57BL/6 wild-type mice and aged matched Vegfb^−/− mice (12 weeks old) were subjected to 14 hours of overnight fasting. Animals were sacrificed using carbon dioxide anaesthetics and visceral epididymal adipose tissue was surgically removed, washed in DPBS, and incubated in prewarmed (37° C.) DMEM (Dulbecco's modified Eagle's medium (DMEM, 1 g/l glucose; GIBCO, Life Technologies, Carlsbad, Calif.) until use. For measurements of forskolin-stimulated lipolysis, the adipose tissue pieces (20±5 mg) were pre-incubated in 200 μl DMEM containing 2% BSA (FA-free; Sigma-Aldrich) or 10 μM forskolin (Sigma-Aldrich) in the presence or absence of or 5 μM Atglistatin (Sigma-Aldrich) in 96-well plates at 37° C., 5% CO2, and 95% humidified atmosphere for 60 min. For measurements of basal lipolysis no pre-incubation was performed. Adipose tissue explants were transferred into 200 μl of identical fresh medium and incubated for further 60 min (=period of measurement) at 37° C., 5% CO2, and 95% humidified atmosphere. FA content was determined from the incubation media using a NEFA kit (Wako chemicals). The total amount of protein was measured by transferring the tissue explants into 1 ml extraction solution (Chloroform/methanol (2:1, v/v), 1% glacial acetic acid) and incubated for 60 min at 37° C. under vigorous shaking. […] Protein content of the adipose tissue explant lysates was determined from the lysed solution using BCA reagent kit (Pierce) and BSA as standard. The rate of lipolysis rate was calculated as the amount of NEFAs/mg protein/hrs. […]
Mice carrying the lox-containing gene construct allowing for Cre recombinase-mediated tissue specific ablation of Vegfb (Vegfb Flox+ mice) were generated by Taconic Artemis (Cologne, Germany). […] FA content was determined from the incubation media using a NEFA kit (Wako chemicals). The total amount of protein was measured by transferring the tissue explants into 1 ml extraction solution (Chloroform/methanol (2:1, v/v), 1% glacial acetic acid) and incubated for 60 min at 37° C. under vigorous shaking. […]

VEGF-B [2] = biological target: T1, VEGF-B (Mus musculus, UniProt P49766); assay: Body weight and blood glucose in chow-fed and overnight-fasted mice treated with anti-VEGF-B antibody; type: in vivo, C57BL/6 mice; conditions: fed or fasted state (14 h overnight); 400 μg i.p. twice weekly, 3 injections; vs isotype control
T1 construct: endogenous in cells; host or cells: C57BL/6 male mice (in vivo)
T1 sequence (P49766 22-207): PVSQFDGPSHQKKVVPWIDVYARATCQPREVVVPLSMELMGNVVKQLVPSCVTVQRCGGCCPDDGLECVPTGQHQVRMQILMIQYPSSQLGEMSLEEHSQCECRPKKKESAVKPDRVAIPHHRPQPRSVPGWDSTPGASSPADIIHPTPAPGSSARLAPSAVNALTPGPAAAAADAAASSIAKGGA
Method: Male C57BL/6 wild-type mice and aged matched (12 weeks) Vegfb^+/− and Vegfb^−/− mice were subjected to 14 hours of overnight fasting. Body weight and blood glucose levels were recorded before and after fasting. Body weight drop was calculated as a percentage of weight loss determined by recording body weight in the fasted and fed state. Glucose measurements were performed using a Bayer Contour Glucose meter on blood from the tail vein. Statistical analyses were performed using one-way ANOVA.
(§1) C57BL/6 male mice purchased from Janvier labs and injected with 3 consecutive injections intraperitoneally (i.p.) twice weekly with 400 μg of anti-VEGF-B antibody (2H10) or an isotype matched control antibody. At the age of 12-16 weeks animals were subjected to 14 hours of overnight fasting. Body weight and blood glucose levels were determined as described above.

VEGF-B [3] = biological target: T1, VEGF-B; assay: Ex vivo lipolysis rate in visceral epididymal adipose tissue of antibody-treated mice; parameters: species or system C57BL/6 mice; conditions: vs control treated
Method: Male C57BL/6 wild-type mice and aged matched Vegfb^−/− mice (12 weeks old) were subjected to 14 hours of overnight fasting. […] FA content was determined from the incubation media using a NEFA kit (Wako chemicals). The total amount of protein was measured by transferring the tissue explants into 1 ml extraction solution (Chloroform/methanol (2:1, v/v), 1% glacial acetic acid) and incubated for 60 min at 37° C. under vigorous shaking. […] Protein content of the adipose tissue explant lysates was determined from the lysed solution using BCA reagent kit (Pierce) and BSA as standard. The rate of lipolysis rate was calculated as the amount of NEFAs/mg protein/hrs. […]
C57BL/6 male mice purchased from Janvier labs and injected with 3 consecutive injections intraperitoneally (i.p.) twice weekly with 400 μg of anti-VEGF-B antibody (2H10) or an isotype matched control antibody. […] Body weight and blood glucose levels were determined as described above.
C57BL/6 male mice were treated with an anti-VEGF-B antibody (2H10) or an isotype matched control antibody as described above. […] Basal and forskolin-stimulated lipolysis was measured as previously described above.

VEGF-B [4] = biological target: T1, VEGF-B; assay: Hepatic lipid droplet quantification (adipophilin) during fasting-induced lipolysis; type: in vivo, C57BL/6 mice; conditions: vs control treated
Method: Male C57BL/6 mice and aged matched (12 weeks) Vegfb^+/− and Vegfb^−/− mice were subjected to 14 hours of overnight fasting. Animals were sacrificed using carbon dioxide anaesthetics and livers and hearts were dissected. For Oil Red 0 (ORO) analysis, liver biopsies were embedded in Tissue-Tek® (Sakura) directly on the mould of the cryostat. Cryo sections (12 μm) were immersed either 5 min (liver) or 8 min (heart) in ORO working solution (2.5 g oil red 0 (Sigma-Aldrich), dissolved in 400 ml 99% isopropanol, further diluted 6:10 in H2O, filtered through a […] filter (Corning). Thereafter the sections were submerged for 3 secs in hematoxylin solution followed by short submerging in LiCO3 (for liver) and rinsed for 10 min under running tap water before they were mounted. Stained sections were examined with bright field microscopy. At least 10 frames per animal within each section were photographed with an Axio Vision microscope (Carl Zeiss) at 20× magnification. The amount of neutral lipids was quantified using Axio Vision Run wizard program for liver or heart ORO staining (pixel^2/μm^2). For measurements of lipid droplets, liver biopsies were fixed in 4% PFA for 24 hours and subsequently processed for paraffin embedding using standard procedures and 4 μm sections were prepared. Antigen retrieval was performed using Antigen retrieval solution Ph6 (Dako #S2367) and heating at 98° C. for 10 min. Sections were incubated at 4° C. overnight with guinea pig anti-adipophilin (Fitzgerald) antibody. […] The amount of lipid droplets was quantified using Axio Vision Run wizard program for hepatic adipophilin+staining (pixel^2/μm^2 or arbitrary units).
C57BL/6 male mice purchased from Janvier labs and injected with 3 consecutive injections intraperitoneally (i.p.) twice weekly with 400 μg of anti-VEGF-B antibody (2H10) or an isotype matched control antibody. […] Body weight and blood glucose levels were determined as described above. […]

VEGF-B [5] = biological target: T1, VEGF-B; assay: Plasma NEFAs, glycerol, triglycerides and insulin in fasting-induced lipolysis; type: in vivo, C57BL/6 mice
Method: Male C57BL/6 mice and aged matched Vegfb^+/− and Vegfb^−/− (12 weeks old) mice were subjected to 14 hours of overnight fasting. Animals were sacrificed using carbon dioxide anaesthetics and total blood was removed by cardiac puncture. Blood was centrifuged at 14000 rpm, 4° C. for 10 minutes, serum was separated and frozen in aliquots at −80° C. Commercially available kits were used for enzymatic determination of non-esterified fatty acids (NEFAs; Wako Chemicals), glycerol (Abcam), triglycerides (TAGs; Sigma-Aldrich) and insulin (Mercodia). Statistical analyses were performed using one-way ANOVA.
as §1
C57BL/6 male mice were treated with an anti-VEGF-B antibody (2H10) or an isotype matched control antibody as described above. At the age of 12-16 weeks animals were subjected to 14 hours of overnight fasting, sacrificed using carbon dioxide anaesthetics and total blood removed by cardiac puncture and processed as described above. Enzymatic determination of NEFAs (Wako Chemicals) and glycerol (Abcam), triglycerides (Sigma-Aldrich) and insulin (Mercodia) was performed as previously described.

[6] = chow-fed mice, vs isotype control
[7] = fasted mice, between treatment groups

Molecule: CN(C)C(=O)Nc1cccc(-c2ccc(N(C)C)cc2)c1 [Atglistatin]
Forskolin-stimulated lipolysis rate ([1]; explants of AdiCre/Vegfb Flox+, WT/WT, WT/Vegfb Flox+ and AdiCre/WT mice): inhibited
Forskolin-stimulated lipolysis ([1]; explants of anti-VEGF-B and control treated C57BL/6 mice): decreased
Forskolin-stimulated lipolysis ([1]; explants of wild-type and Vegfb−/− mice): decreased

Forskolin-stimulated lipolysis rate (VEGF-B [3]; 10 μM forskolin): No effect
Basal lipolysis rate (VEGF-B [3]; adipose tissue of fasted mice): significantly reduces
Hepatic lipid accumulation (VEGF-B [4]; fasting conditions (fasting-induced lipolysis)): inhibited
Hepatic lipid accumulation (VEGF-B [4]; fasting conditions (fasting-induced lipolysis), listed as anti-VEGF-B): significantly reduced
Hepatic lipid accumulation (VEGF-B [4]; fed conditions): significantly reduced
Plasma insulin levels (VEGF-B [5]; [6]): significant increase
Plasma levels of NEFAs (VEGF-B [5]; [6]): did not alter
Plasma levels of TAGs (VEGF-B [5]; [6]): did not alter
Plasma levels of glycerol (VEGF-B [5]; [6]): did not alter
Plasma levels of NEFAs (VEGF-B [5]; fasted mice (14 h overnight)): not increased
Plasma levels of glycerol (VEGF-B [5]; fasted mice (14 h overnight)): not increased
Fasting plasma TAG levels (VEGF-B [5]; [7]): No differences
Fasting plasma insulin levels (VEGF-B [5]; [7]): No differences
B1: 2H10: anti-VEGF-B antibody comprising a VH of SEQ ID NO: 3 and a VL of SEQ ID NO: 4 (antibody, V domains shown)
VH: VQLQQPGTELVKPGASVKLSCKASGYTFTGFWIHWVKQRPGQGLEWIGHINPGNGGTNYNEKFKRMATLTVDKSSSTAYMQLSSLTSEDSAVYYCARSYSNYVRAMDYWGQGTSVTVSS
VL: IQMTQTTSSLSASLGDRVTISCRASQDISNFLNWYQQKPDGTVKLLIYYTSTLHSGVPSRFSGSGSGTDYSLTISNLEQEDIATYFCQQGKTLPPTFGGGTKLEIK
modifications: amino acid sequence from a VH of antibody 2H10; amino acid sequence from a VL of antibody 2H10
Blood glucose levels (VEGF-B [2]): does not Influence
Body weight (VEGF-B [2]): does not Influence
